This passage reports PCC (Pearson correlation coefficient of colocalisation) results from publication doi:10.1101/2021.04.13.439745.

The target of this test is T1, Pil1-mCherry-Atg38(161-190) (S. pombe), O94427.
T1 chain: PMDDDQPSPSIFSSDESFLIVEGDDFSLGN
To be noted: remark: other sources report otherwise.

B1: GFP-Atg8^(P52A R67A), O94272 1-116 (natural protein)
chain: MRSQFKDDFSFEKRKTESQRIREKYPDRIPVICEKVDKSDIAAIDKKKYLVASDLTVGQFVYVIRKAIKLSPEKAIFIFIDEILPPTAALMSTIYEEHKSEDGFLYITYSGENTFG
Molecule B1 displayed a PCC (Pearson correlation coefficient of colocalisation) of 0.42.
